Publication PMC11357561, “Efficient 2,3-Butanediol Production from Ethanol by a Modified Four-Enzyme Synthetic Biosystem” (Molecules, 2024)

What was measured:
Test in all cases: acetoin formation, Voges-Proskauer test, Michaelis-Menten fit
Settings in all cases: 100 mM phosphate pH 8.0, 0.1 mM TPP, 1 mM Mg2+, 2-600 mM acetaldehyde
formolase (FLS) [1] = target: T1, formolase (FLS) (Pseudomonas fluorescens, UniProt Q9F4L3, A28I/W89R/L90T/R188H/A394G/G419N/A480W/L482E); assay type: biochemical
T1 construct: gene bznB; computationally designed formolase derived from benzaldehyde lyase; pET28a, E. coli BL21(DE3), Ni-NTA His-tag purified
T1 sequence (Q9F4L3 1-563 A28I/W89R/L90T/R188H/A394G/G419N/A480W/L482E): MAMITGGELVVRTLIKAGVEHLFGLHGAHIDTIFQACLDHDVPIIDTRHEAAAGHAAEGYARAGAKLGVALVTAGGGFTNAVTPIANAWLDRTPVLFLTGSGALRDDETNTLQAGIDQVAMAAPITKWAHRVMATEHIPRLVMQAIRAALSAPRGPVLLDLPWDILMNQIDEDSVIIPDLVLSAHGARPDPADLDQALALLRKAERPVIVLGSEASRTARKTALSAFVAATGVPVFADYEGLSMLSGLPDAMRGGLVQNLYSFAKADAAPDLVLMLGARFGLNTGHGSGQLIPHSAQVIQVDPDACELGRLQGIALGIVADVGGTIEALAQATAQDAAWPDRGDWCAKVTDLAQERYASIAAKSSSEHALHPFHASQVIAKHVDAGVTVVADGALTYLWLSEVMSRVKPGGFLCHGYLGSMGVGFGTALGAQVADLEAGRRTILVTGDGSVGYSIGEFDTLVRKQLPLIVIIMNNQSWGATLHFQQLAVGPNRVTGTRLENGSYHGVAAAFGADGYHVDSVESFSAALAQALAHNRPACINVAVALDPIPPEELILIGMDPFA
From the text: (§1) acetoin formation, Voges-Proskauer test, Michaelis-Menten fit on formolase (FLS)

formolase (FLS) [2] = target: T2, formolase (FLS) (Pseudomonas fluorescens, UniProt Q9F4L3, A28I/W89R/L90T/R188H/A394G/G419N/A480W); assay type: biochemical
T2 construct: gene bznB; computationally designed formolase derived from benzaldehyde lyase; pET28a, E. coli BL21(DE3), Ni-NTA His-tag purified
T2 sequence (Q9F4L3 1-563 A28I/W89R/L90T/R188H/A394G/G419N/A480W): T1 sequence (Q9F4L3 1-563 A28I/W89R/L90T/R188H/A394G/G419N/A480W/L482E)
From the text: as §1

CC=O = test system: T3, CC=O; assay type: biochemical, Pseudomonas fluorescens
T3 construct: computationally designed formolase derived from benzaldehyde lyase; pET28a, E. coli BL21(DE3), Ni-NTA His-tag purified
From the text: as §1

Row | Molecule | Km (formolase (FLS) [1]) | Km (formolase (FLS) [2]) | Km (CC=O) | kcat (CC=O) | kcat/Km (CC=O)
1 | CC=O [acetaldehyde] | 50.9 ± 3.22 mM | 58.5 ± 2.32 mM |  |  | 
2 | formolase (FLS) (Pseudomonas fluorescens; A28I/A394G/A480W/F484A/G419N/L90T/R188H/W89R) |  |  | 53.28 ± 2.52 mM | 1.74 ± 0.12 s⁻¹ | 32.6 M⁻¹ s⁻¹
3 | formolase (FLS) (Pseudomonas fluorescens; A28V/A394G/A480W/G419N/L90T/R188H/W89R) |  |  | 81.95 ± 3.61 mM | 3.33 ± 0.21 s⁻¹ | 40.6 M⁻¹ s⁻¹
